The target in series [1] is T1, PeWRKY1 (Populus euphratica, UniProt A0AAJ6U0E7 1-595). Description: EMSA. Background: Mobility shift assays separate free from complexed probe on a gel.
The target in series [2] is T1, PeWRKY1. Description: competition.
The target in series [3] is T1, PeWRKY1. Description: competition. The source holds these as a separate data set.

B1: PeHA1 promoter W-box probe (dsDNA)
DNA 1: CCCTATCGGGCAAGATTTGACCCGCCCGAGTTGATCCCTC
DNA 2: GAGGGATCAACTCGGGCGGGTCAAATCTTGCCCGATAGGG
For B1, the binding result with PeWRKY1 [1] is “binds”.

B2: PeHA1 promoter W-box unlabeled competitor (dsDNA)
DNA 1: CCCTATCGGGCAAGATTTGACCCGCCCGAGTTGATCCCTC
DNA 2: GAGGGATCAACTCGGGCGGGTCAAATCTTGCCCGATAGGG
With B2, the binding result in the series with PeWRKY1 [2] was “binds”.

B3: W-box mutant probe (TTGACC to TTAGCC) (dsDNA)
DNA 1: CCCTATCGGGCAAGATTTAGCCCGCCCGAGTTGATCCCTC
DNA 2: GAGGGATCAACTCGGGCGGGCTAAATCTTGCCCGATAGGG
With B3, the binding result in the series with PeWRKY1 [3] is recorded as “no binding”.
